Assay results: article PMC7619307, “The Golgi vesicle tether p115 can bind directly to the ER exit site organiser Sec16A” (Journal of cell science, 2026)

Target: T1, FLAG-tagged p115 head domain (1–655) (human, UniProt O60763 1-655)
T1 sequence (looked up): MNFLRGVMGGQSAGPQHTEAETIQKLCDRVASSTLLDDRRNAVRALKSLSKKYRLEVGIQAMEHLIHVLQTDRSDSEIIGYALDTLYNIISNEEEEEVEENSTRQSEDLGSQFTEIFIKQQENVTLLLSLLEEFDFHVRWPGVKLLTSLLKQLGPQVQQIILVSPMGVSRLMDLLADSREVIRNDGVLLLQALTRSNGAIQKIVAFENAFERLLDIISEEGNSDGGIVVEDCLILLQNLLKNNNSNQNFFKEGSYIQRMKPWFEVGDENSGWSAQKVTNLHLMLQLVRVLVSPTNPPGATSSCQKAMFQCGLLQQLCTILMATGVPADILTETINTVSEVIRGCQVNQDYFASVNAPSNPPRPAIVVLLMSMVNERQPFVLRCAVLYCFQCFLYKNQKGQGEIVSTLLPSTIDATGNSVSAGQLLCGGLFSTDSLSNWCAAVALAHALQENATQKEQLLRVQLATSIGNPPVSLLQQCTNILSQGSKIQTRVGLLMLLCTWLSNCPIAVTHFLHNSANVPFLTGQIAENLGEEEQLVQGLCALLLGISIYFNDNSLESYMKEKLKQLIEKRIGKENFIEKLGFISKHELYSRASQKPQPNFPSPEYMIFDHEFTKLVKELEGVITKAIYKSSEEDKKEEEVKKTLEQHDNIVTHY
Assay: pull-down; direct binding assay: FLAG-tagged protein eluted from anti-FLAG beads (1 M NaCl wash, 3×FLAG peptide) was incubated for 1 h at 4°C with GFP-tagged protein held on GFP-Trap beads after harsh washes (1% SDS; 1 M NaCl, 1% Triton X-100); washes with 300 mM NaCl; immunoblot
Conditions: both partners purified

B1: Sec16A (650–776)–GFP (domain or fragment, human, UniProt O15027 650-776, looked up)
chain: ALPDASPGNLEQPPDNMETLCAPQVCPLPLNSTTEAVHMLPHAGAPPLDTVYPAPEKRPSARTQGPVKCESPATTLWAQSELPDFGGNVLLAPAAPALYVCAKPQPPVVQPPEEAMSGQQSRNPSSA
notes: source: HEK293T, transfected, in lysate (co-precipitation); not shown: GFP, C-terminal, kept
binding result: binds
